Drawing on article PMC11767649, this text covers stoichiometry N for one substance.

The experiment has as its target rhRKIP C133A mutant, histidine-tagged (human) (UniProt P30086). Description: non-reducing SDS-PAGE; purified rhRKIP in sample loading buffer without β-mercaptoethanol or boiling; Coomassie Brilliant Blue staining or anti-His immunoblot. (In general: A western blot detects proteins with antibodies after separation by electrophoresis.)

For orientation: stoichiometry N means a count of units in the complex or per binding partner. Consider “rhRKIP C133A mutant, histidine-tagged (from UniProt P30086 1-187) (natural protein)”, for which the stoichiometry N amounted to 2.
